# System: T1, C=CCc1cc(OC)c2c(c1)OCO2
# T1 construct: full-length, 505 residues, 57 kD, untagged; microsomal fraction of Saccharomyces cerevisiae AH22, vector pGYR-SpeI co-expressing yeast NADPH-P450 reductase
# Assay: GC-FID product assay, yeast microsomal fraction
# Type: biochemical, Perilla frutescens
# Settings: 0.5 mM NADPH, 50 mM HEPES/NaOH pH 7.5, 30 °C, 15 min, myristicin 0.2 to 10 µM, co-expressed yeast NADPH-P450 reductase, product 6-allyl-4-methoxy-1,3-benzodioxol-5-ol
# Text: GC-FID product assay, yeast microsomal fraction on Pf-49487 (CYP71D558) | We performed kinetic analyses of the Pf-49487 reaction using myristicin as substrate.
substance,measurement,value
Pf-49487 (CYP71D558) (Perilla frutescens),Km,9.1 µM
same,kcat,0.25 s⁻¹
